How the values were obtained:
marmoset SEMA4D-His = target: T1, marmoset SEMA4D-His (marmoset, UniProt A0A8I3W811 22-734); assay: BIACORE; antibody captured with goat anti-human IgG Fc, marmoset SEMA4D-His as analyte
T1 construct: also called CD100-His; not shown: His tag
T1 sequence: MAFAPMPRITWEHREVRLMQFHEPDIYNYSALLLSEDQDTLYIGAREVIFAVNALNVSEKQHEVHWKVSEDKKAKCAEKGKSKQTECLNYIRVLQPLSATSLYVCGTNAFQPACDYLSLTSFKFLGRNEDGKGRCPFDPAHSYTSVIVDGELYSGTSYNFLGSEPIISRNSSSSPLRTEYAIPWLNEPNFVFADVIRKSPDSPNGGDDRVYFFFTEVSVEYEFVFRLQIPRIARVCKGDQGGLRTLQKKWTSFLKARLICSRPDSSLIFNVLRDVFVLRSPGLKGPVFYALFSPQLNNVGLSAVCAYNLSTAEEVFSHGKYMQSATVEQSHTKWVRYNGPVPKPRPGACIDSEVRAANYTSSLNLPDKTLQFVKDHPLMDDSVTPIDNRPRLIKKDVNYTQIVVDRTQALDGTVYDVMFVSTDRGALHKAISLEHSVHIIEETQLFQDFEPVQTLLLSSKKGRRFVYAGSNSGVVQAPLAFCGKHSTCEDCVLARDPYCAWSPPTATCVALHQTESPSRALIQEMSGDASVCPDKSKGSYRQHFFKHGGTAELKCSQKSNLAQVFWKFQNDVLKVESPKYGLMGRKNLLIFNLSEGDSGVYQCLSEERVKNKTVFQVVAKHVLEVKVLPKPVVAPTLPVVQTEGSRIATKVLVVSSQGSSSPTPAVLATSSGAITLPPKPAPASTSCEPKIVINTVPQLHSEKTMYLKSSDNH
Description: The binding characteristics of MAb D2517 were determined by BIACORE assay, as follows.

mouse SEMA4D-His = target: T2, mouse SEMA4D-His (mouse, UniProt O09126 24-733, limits assumed); assay: receptor blocking; antibody dilution series pre-incubated with SEMA4D-His, binding to 293PLXNB1 cells (Plexin B1) read by flow cytometry
T2 construct: not shown: His tag, detected with anti-6xHis-APC
T2 sequence (looked up): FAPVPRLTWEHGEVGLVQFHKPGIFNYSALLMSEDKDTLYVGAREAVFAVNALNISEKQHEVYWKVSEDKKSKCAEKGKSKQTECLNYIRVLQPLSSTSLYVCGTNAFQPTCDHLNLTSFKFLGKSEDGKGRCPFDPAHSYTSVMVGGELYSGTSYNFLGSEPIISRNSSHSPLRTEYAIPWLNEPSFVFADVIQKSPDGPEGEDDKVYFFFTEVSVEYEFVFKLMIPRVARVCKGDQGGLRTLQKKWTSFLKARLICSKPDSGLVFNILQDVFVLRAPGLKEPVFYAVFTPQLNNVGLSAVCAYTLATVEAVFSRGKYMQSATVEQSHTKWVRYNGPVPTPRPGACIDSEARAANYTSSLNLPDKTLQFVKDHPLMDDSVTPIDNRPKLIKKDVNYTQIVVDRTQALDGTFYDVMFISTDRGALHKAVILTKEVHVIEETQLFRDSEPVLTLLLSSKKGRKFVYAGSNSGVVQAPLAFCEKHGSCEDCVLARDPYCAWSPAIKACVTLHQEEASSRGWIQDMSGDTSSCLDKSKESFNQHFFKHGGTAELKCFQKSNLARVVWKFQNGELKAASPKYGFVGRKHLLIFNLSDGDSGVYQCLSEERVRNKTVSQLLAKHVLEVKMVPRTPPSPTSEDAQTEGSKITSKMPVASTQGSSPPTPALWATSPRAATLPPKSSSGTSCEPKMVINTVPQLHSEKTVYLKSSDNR
Description: (§1) After washing, the cells were stained with anti-6xHis-APC (30 min, 4° C.), washed and analyzed by flow cytometry on FACS Canto II.

[1] = target: T3, cynomolgus monkey SEMA4D-His (cynomolgus monkey); assay: as above
T3 construct: also called Cyno SEMA4D
Description: as §1

human SEMA4D-His = target: T4, human SEMA4D-His (human, UniProt Q92854 22-734, limits assumed); assay: as above
T4 construct: also called CD100-His; not shown: His tag, detected with anti-6xHis-APC
T4 sequence (looked up): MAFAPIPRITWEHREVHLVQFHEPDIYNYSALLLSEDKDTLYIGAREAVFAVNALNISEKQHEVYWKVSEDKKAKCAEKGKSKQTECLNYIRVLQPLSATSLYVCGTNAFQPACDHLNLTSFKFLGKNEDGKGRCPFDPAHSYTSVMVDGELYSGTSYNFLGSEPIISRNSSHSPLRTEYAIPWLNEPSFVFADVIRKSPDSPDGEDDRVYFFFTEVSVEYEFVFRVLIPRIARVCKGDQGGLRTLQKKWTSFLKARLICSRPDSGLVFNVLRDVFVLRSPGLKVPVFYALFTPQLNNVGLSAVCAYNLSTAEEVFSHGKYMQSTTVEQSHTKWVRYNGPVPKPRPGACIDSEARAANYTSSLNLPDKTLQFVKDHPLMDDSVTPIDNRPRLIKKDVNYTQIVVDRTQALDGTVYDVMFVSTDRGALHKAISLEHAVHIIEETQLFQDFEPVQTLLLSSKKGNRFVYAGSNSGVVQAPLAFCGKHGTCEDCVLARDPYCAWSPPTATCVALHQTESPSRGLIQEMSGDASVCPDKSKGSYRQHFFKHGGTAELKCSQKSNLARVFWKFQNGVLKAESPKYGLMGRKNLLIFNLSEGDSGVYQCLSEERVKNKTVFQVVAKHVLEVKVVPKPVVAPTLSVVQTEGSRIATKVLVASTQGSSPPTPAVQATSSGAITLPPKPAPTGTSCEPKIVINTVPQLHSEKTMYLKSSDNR
Description: as §1

rat SEMA4D-His = target: T5, rat SEMA4D-His (rat, UniProt A0A8I6G5Q1 23-734); assay: as above
T5 construct: not shown: His tag, detected with anti-6xHis-APC
Description: as §1

Ka (marmoset SEMA4D-His): 2.47e+08 M⁻¹
Kd (marmoset SEMA4D-His): 4 nM
koff (marmoset SEMA4D-His): 0.0032 s⁻¹
kon (marmoset SEMA4D-His): 789000 M⁻¹ s⁻¹
EC50 (mouse SEMA4D-His): 1.2 nM
EC50 [1]: 1.2 nM
EC50 (human SEMA4D-His): 1 nM
EC50 (rat SEMA4D-His): 1.5 nM
B1: MAb D2517 (antibody, V domains shown)
VH: EVQLVESGGGLVQPGGSLRLSCAASGFIFSDYWMVWVRQAPGKGLEYVAHMNQDGGARYYAESVRGRFTISRDNAKNSLYLQMNSLRAEDTAVYYCARDPWGYDSWGQGTLVT
VL: not shown

Source: patent US20210032329A1 (VACCINEX, published 2021)
